Assay results as given in paper PMC5358978, “Nuclear export receptor CRM1 recognizes diverse conformations in nuclear export signals” (eLife, 2017).

Experiments:
^HsCRM1 = ^HsCRM1 (Homo sapiens, UniProt O14980); assay: Differential bleaching, competition titration of MBP-NES to FITC-PKI^NES and CRM1 with excess RanGTP; type: binding
HeLa cells = assay: In vivo NES activity assay, EYFP2-SV40^NLS-NES reporter, spinning disk confocal microscope; type: cell-based; conditions: EYFP2-SV40^NLS-FMRP-1b^NES expressed in HeLa cells; 60X
Excerpt: Figure 2. Structures of NESs with non-helical sequence patterns. (A–E) FMRP^NES (light orange), SMAD4^NES (salmon), HDAC^NES (slate), Pax^NES (pale cyan) and FMRP-1b^NES (deep teal) bound to the ^ScCRM1 groove. […] Average displacements of each Φ Cα in the eight NESs (including mDia2^NES, CDC7^NES, X11L2^NES in Figure 1) from the equivalent Φ Cα of PKI^NES(Ф0L) are 1.3 ± 0.6 (Φ4), 0.8 ± 0.5 (Φ3), 0.7 ± 0.4 (Φ2), 0.9 ± 0.3 (Φ1) and 1.8 ± 0.9 (Φ0) Å. DOI: http://dx.doi.org/10.7554/eLife.23961.012 Figure 2—figure supplement 1. Electron densities of the NES peptides. […] DOI: http://dx.doi.org/10.7554/eLife.23961.013 [drawing 7] Figure 2—figure supplement 2. Engineering class 1b NESs. (A) Sequences of class 1b NESs generated from PKI^NES and FMRP^NES. […] The reactions were extensively washed and visualized with SDS/PAGE and Coomassie staining. (B) Leptomycin B (LMB) sensitive nuclear export activity of FMRP-1b^NES was verified by expressing EYFP2-SV40^NLS-FMRP-1b^NES in HeLa cells and imaged with spinning disk confocal microscope (60X). DOI: http://dx.doi.org/10.7554/eLife.23961.014 [drawing 8]

wild type ^HsCRM1 = assay: Pull-down binding assay with immobilized GST-NESs; design: species or system human; conditions: ~5 µg immobilized GST-NESs, 7.5 µM ^ScRanGTP, 2.5 µM CRM1, 200 µL
CRM1 = conditions: ref Xu et al., 2012c, 2015; cited from earlier work
Excerpt: What then are CRM1 groove features that selectively recognize the key NES features? Arrangement of hydrophobic pockets in the groove likely selects NESs with suitably placed Φ residues. Groove shape, tapering and most constricted at ^ScCRM1 Lys579 (^HsCRM1 Lys568), likely selects for NES helices that transition to strands or NES helices that end (Figure 3C). Is groove-constricting ^HsCRM1 Lys568 perhaps key for differentiating active from false positive NES sequences? We tested mutants ^HsCRM1(K568A) and ^HsCRM1(K568M) for interactions with three previously identified false positive NESs that ...

[1] = MBP-NES competes with FITC-PKI^NES for CRM1, excess RanGTP, triplicate, brackets = 68.3% confidence interval

Substance | Kd (^HsCRM1; [1]) [µM] | also measured
MBP-CDC7^NES: MBP fusion of the NES of cell division cycle 7-related protein kinase | 20 | –
YLKEVDQLRALER [MBP-FMRP-1b^NES mutant] | – | CRM1 binding in words, differential bleaching competition (^HsCRM1; excess RanGTP): does not bind CRM1; Kd (^HsCRM1; triplicate competition titrations, brackets = 68.3% confidence level, U = undetermined, NB = not binding): 1700 µM
GGS-YLKEVDQLRALERLQID [MBP-FMRP-1b^NES, Engineered class 1b NES, an alanine added to FMRP^NES; tested as MBP fusion and as EYFP2-SV40^NLS reporter] | 3 | Leptomycin B (LMB) sensitive nuclear export activity (HeLa cells): verified
173KTLSEVEESISTLISQPN^190 [COMMD1^pep, False positive NES peptide from COMM domain-containing protein 1, class 3 match; GST fusion in pull-down] | – | Pull-down binding to wild type ^HsCRM1 (wild type ^HsCRM1): does not bind; CRM1 binding of false positive NESs that match NES consensus (CRM1): do not bind CRM1
MBP-SMAD4^NES: MBP fusion of the NES of Mothers against decapentaplegic homolog 4 protein | 4.6 | –

The remaining substances from weak to strong by Kd (^HsCRM1; [1]), led by results:

Kd (^HsCRM1; [1]) [µM] | Substance | also measured
2 | MBP-FMRP^NES: MBP fusion of the class 2 NES of fragile X mental retardation protein | –
1.6 | MBP-HDAC5^NES: MBP fusion of the NES of Histone deacetylase 5 | –
1.5 | MBP-X11L2^NES: MBP fusion of the NES from beta-amyloid binding protein X11L2 | –
0.67 | MBP-Pax^NES: MBP fusion of the NES of Paxillin | –
